Source: patent US20140161732A1 (published 2014)
Bridge positions count the residues as written; N and C are the ends.

Target: KDR on human umbilical vein endothelial cells (HUVECs) (human, UniProt P35968 20-1356)
Experiment: cell-based or functional assay

KDR on human umbilical vein endothelial cells (HUVECs), sequence (P35968 20-1356): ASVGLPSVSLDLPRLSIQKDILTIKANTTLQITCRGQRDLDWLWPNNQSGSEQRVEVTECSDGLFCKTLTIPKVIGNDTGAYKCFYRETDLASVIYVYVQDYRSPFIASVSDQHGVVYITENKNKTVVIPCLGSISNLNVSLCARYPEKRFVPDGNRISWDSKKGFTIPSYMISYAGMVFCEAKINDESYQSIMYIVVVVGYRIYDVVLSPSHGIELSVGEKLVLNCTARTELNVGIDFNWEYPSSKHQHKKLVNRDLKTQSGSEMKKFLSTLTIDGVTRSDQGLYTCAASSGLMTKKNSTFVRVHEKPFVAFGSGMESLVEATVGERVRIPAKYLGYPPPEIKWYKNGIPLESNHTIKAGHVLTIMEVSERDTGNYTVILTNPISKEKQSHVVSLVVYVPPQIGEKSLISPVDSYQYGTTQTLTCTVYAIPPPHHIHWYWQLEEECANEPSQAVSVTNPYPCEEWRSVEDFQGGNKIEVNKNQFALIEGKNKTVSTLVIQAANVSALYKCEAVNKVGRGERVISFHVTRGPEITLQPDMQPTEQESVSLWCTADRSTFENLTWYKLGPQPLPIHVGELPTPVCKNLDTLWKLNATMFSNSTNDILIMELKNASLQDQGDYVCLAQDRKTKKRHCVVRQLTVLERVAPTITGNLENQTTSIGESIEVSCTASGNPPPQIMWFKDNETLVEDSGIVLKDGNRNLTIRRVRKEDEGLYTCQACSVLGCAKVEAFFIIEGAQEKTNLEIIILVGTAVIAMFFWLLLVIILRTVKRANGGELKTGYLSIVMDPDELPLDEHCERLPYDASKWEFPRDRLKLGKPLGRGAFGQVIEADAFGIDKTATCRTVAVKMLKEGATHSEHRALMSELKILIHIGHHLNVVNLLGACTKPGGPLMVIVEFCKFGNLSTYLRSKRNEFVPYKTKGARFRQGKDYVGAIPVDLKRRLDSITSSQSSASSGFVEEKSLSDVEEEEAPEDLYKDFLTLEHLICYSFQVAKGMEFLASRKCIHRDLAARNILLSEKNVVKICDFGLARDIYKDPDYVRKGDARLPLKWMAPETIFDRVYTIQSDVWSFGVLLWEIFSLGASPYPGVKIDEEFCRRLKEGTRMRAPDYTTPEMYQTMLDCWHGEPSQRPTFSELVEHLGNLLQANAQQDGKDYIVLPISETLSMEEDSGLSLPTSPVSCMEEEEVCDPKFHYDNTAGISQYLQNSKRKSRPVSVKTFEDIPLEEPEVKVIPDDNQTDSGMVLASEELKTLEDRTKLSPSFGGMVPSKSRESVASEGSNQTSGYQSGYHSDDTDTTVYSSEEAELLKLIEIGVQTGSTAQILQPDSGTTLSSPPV

Binder | VEGF-induced KDR phosphorylation in HUVECs (immunoblot) [% inhibition at 10 µM]
Ac-AGWIECYHPDGICYHFGTGGGK-NH2 (disulfide 6-13 (inferred); also: fluorescein on C-terminal Lys in anisotropy assay only) [SEQ ID NO:269] | ≥ 50
Ac-GDSRVCWEDSWGGEVCFRYDPGGGK-NH2 (disulfide 6-16 (inferred); also: fluorescein on C-terminal Lys in anisotropy assay only) [SEQ ID NO:294] | ≥ 50
